These results are taken from the nanobody polyreactivity screen of Harvey et al. (2022).

This data set can be described thus: yeast display, Sf9 membrane polyspecificity reagent, FACS + sequencing; frameworks hold sequencing errors. The essentials: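 Using colony PCR, genes from sorted yeast display clones were amplified, then sequenced on MiSeq at 2 × 250 and filtered by CDR length. The clones had been stained with 10% biotinylated, detergent-solubilized Sf9 membrane reagent for 1 hour at 4 °C and sorted by FACS into low and high (top ~1%) gates on anti-HA and streptavidin fluorescence. Polyreactivity labels come from the gate of origin.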
As for “QVQLVESGGGLVQAGGSLRLSCAASGRIFVYYAMGWYRPAPGKERELVATITETGGSTYYADSVKGRFTISRDNAKNTVYLQMNSLKPEDSAVYYCNADYWGTYGWDWYWYVYWGQGTQVTVSS”, the “polyreactivity (PSR sort gate)” value is reported as “low polyreactivity”.

On to “QVQLVESGGGLVQAGGSLRLSCAASGRTFYRNAMGWYRQAPGKERELVAAITSSGASTYYADSVKGRFTISRDNAKNTVYLQMNSLKPEDTAVYYCAAKYVYSVGNYRYDYWGQGTQVTVSS”, for which the “polyreactivity (PSR sort gate)” value is “low polyreactivity”.

With “QVQLVESGGGLVQAGGSLRLSCAASGFTFSFYAMGWYRQAPGKERELVAAISSGGRTSYADSVKGRFTISRDNAKNTVYLQMNSLKPEDTAVYYCAASYPGRYWLYRYEYWGQGTQVTVSS”, the “polyreactivity (PSR sort gate)” value is listed as “high polyreactivity”.

“QVQLVDSGGGLVQAGGSHRLSCAASGIIFPTYDMGWYRPAPGKERELVAAITWSTGSTTYADSVKGRFTISRDNAKNTVYLQMNSLKPEDTAVYYCNKDSEGSGGEFDDWGQGTQVTVSS”: the “polyreactivity (PSR sort gate)” value is given as “low polyreactivity”.

Consider “QFQLVESGGGLVQAGGSLRLSCAASGGIFTDYTMGWYRQAPGKERELVAAITWTGGSTYYADSVKGRFTISRDNAKNTVYLQMNILKPEDTAVYYCAADDYWVNLDYWGQGTQVTVSS”, for which the “polyreactivity (PSR sort gate)” value is reported as “low polyreactivity”.

For “QVQLVESGGGLVQEGGSLRIICAASGFIFYYYAMGWYRQAPGKERELVAGISRRGGSTYYADSVKGRFTISRDNAKNTVYLQMNSLKPEDTAVYYCAALGDDATSYGYWGQGTQVTVSS”, the “polyreactivity (PSR sort gate)” value is listed as “high polyreactivity”.

Regarding “QVQLVESGGGLVQAAGSLRLSCAASGSIFVRNAMGWYRQAPGKEREFVAAISWRGGTYYADSVKGRFTISRDNAKNTVYLQMNSLKPEDSAVYYCAARLYPTPGNGALGKTAWVYYWGQGTQVTVSS”, the “polyreactivity (PSR sort gate)” value was “low polyreactivity”.

Take “QVQLVESGGGLVQAGGSLRLSCAASGFIFWTYAMGWYRQAPGKERELVARISWSGGSTYYADSVKGRFTISRDNAKNTVYLQMNSLKPEDTAVYYCARLATLYESIEYDYWGQGTQVTVSS”: the “polyreactivity (PSR sort gate)” value was “low polyreactivity”.

As for “QVQLVESGGGLVQAGGSLRLSCDASGITIRLYGMGWYRQAPGTERELVATITRDGRTYYADSVKGRFTISRDNAKNTVYLQMNSLKPEDTGVYYCARPARYSYGDGYWGQGTEVTVSS”, the “polyreactivity (PSR sort gate)” value is “low polyreactivity”.

In the case of “QVQLVESGGGLVQAGGSLRLSCAASGSILRRYAMGWYRQAPGKEREFVAAISYSGSRTYYADSVKGRFTISRDNAKNTVYLQMNSLKPEDTAVYYCAADSYGSRYEYWGQGTQVTVSS”, the “polyreactivity (PSR sort gate)” value was “high polyreactivity”.

In the case of “QVQLVESGGGLVQAGGSLSLSCAASGSNFNVYVMGWYRQAPGKERELVAAITYRGASTYYADSVKGRFTFSRDNAKNTVYLQMNSLKPEDTAVYYCAARYGYRSVYRSYNSRPYDYWGQGTQVTVSS”, the “polyreactivity (PSR sort gate)” value is listed as “high polyreactivity”.

With “QVQLVESGGGLVQAGGSLRLSCAASGSIFAPYAMGWYRQAPGKERELVAAINNNGGRTYYADSVKGRFTISRDNAKNTVYLQMNSLKPEDTAVYYCAKELGYDWYYRPYGYWGQGTQVTVSS”, the “polyreactivity (PSR sort gate)” value was “low polyreactivity”.

As to “QVQLVESGGGLDQAGGSLRLSCAASGSIFRRYTMGWYRQAPGKERELVAAISRVGNTNYADSVKGRITISRDNAKNTVYFQMNSLKPEDTEVYYCAARAIGYRYTPGLNYWGQGTQVTVSS”, the “polyreactivity (PSR sort gate)” value is listed as “high polyreactivity”.

“QVQLVESGGGLVQAGGSLRLSCAASGITFRYYAMGWYRQAPGKERELVADINRGSDTNYADSVKGRFTISRDNAKNTVYLQMNSLKPEDTAVYYCNAYWQGYGYDYWGQGTQVTVSS”: the “polyreactivity (PSR sort gate)” value is recorded as “low polyreactivity”.

In the case of “QVQLVESGGGLVQAGGSLRLSCAASGRIFYYNAMGWYRQAPRKERELVASITGSGGSTYYADSVKGRFTISRDNAKNTVYLQMNSLKPEDSAVYYCAKREYLYRYYYVAKYDYWGQGTQVSVSS”, the “polyreactivity (PSR sort gate)” value is “low polyreactivity”.

With “QVQLVESGGGLVQAGGSLRLSCAASGIIFVLYDMGWYRPAPGKERELVAAIDKSGGSTYYADSVKGRFTISRDNAKNTVYLQMNSLKPEDTAVYYCNARVVWRNPSYLKSSYDYWGQGTQVTVSS”, the “polyreactivity (PSR sort gate)” value is “low polyreactivity”.

Consider “QVQLVESGGGLVQAGGSLRLSCAASGRILATYTMGWYRQAPGKERELVATITSGGRTTYADSVKGRFTISRDNAKNTVYLQMNSLKPEDTAVYYCNVANWYYRKYRPLWGRDYYWGQGTQVTVSS”, for which the “polyreactivity (PSR sort gate)” value is “high polyreactivity”.

Consider “QVQLVESGGGLVQGGGSLRLSCAASGSIFTRNAMGWYRQAPGKEREFVAAISSSGVSTYYADSVKGRFTISRDNAKNTVYLQMNSLKPEDTALYYCAARWGTKSGRYDYWGQGTQVTVSS”, for which the “polyreactivity (PSR sort gate)” value is “high polyreactivity”.

Take “QVQLVESGGGLVQAGGSLRLSCAASGSIFAAYTMGWYRQAPGKERELVAAISVSTVSTYYADSVKGRFTISRDNAKISVYLQMNSLKPEDTAVYYCNADSTTQDYDYWGQGTQVTVSS”: the “polyreactivity (PSR sort gate)” value is “low polyreactivity”.

As for “QVQLVESGGGLVQAGGSLRLSCAASGRIFDSNAMGWYRQAPGKERELVAAITYSGGGTFYADSVKGRITISRDNEKNTDYLQMNSLKPEDTAVYYCAARTSGKYRYYYWGQGTQVTVSS”, the “polyreactivity (PSR sort gate)” value is “high polyreactivity”.

Regarding “QVQLVESGGGLVQAGGSLRLSCAASGFTFRTYAMGWYRQAPGKERELVAAITGRGSNTYYADSVKGRFTISRDNAKNTVYLQMNSLKPEDTAVYYCNARYYDYRVALRYDYWGQGTQVTVSS”, the “polyreactivity (PSR sort gate)” value is reported as “high polyreactivity”.

In the case of “QVQLVESGGGLLQAGGILRLSCAASGRTFGLYAMRWYRQAPGKERELVAAIRGSAGSTYYADSVKGRFTISRDNAKNTVYLQMNSLKPEDTAVYYCATVGYPSLWYGYGYWGQGTQVTVSS”, the “polyreactivity (PSR sort gate)” value is “low polyreactivity”.

As for “QVQHVESGGGLVQAGGSLRLTCAASGRIYASNSKGWYRQETGKERELFATSRVGGGSTYYADSVKGRFTISRDNAKNTVYLQRNSLKQEDTAVYYWAASFRDDFPQRLDFWGQGTQVTVSS”, the “polyreactivity (PSR sort gate)” value is listed as “low polyreactivity”.

Consider “QVQLVESGGGLVQAGGSLRLSCAASGSIFPVYAMGWYRQAPGKEREFVARIRFSGGRTYYADSVKGRFTISRDNAKNTVYLQMNSLKPEDTAVYYCAKAQYRGRYGYWGQGTQVTVSS”, for which the “polyreactivity (PSR sort gate)” value is reported as “high polyreactivity”.

On to “QVQLVESGGGLVQAGGRLSLSCAASGSIFEKNAIGWYIQAPGKERELFAAISSSGGRTNYADSVKGRYTISRDNAKITVYFQMNSLKPEDTAVYYCAAYRRGHRYPGYEYWGQGTQVTVSS”, for which the “polyreactivity (PSR sort gate)” value is listed as “high polyreactivity”.

Turning to “QVQLVESGGGLVQAGGRLRLSCAASVFIFGIYASGWYRQAPGKDRELVAAITWDTGSTYYADSVKGRFTISRDNAKNTVYLQMNRLKPEDTAVYYRAVDGWDLTYYDSYYSWGQGTQVTVSS”, the “polyreactivity (PSR sort gate)” value is “high polyreactivity”.

With “QVQLVESGGGLVQAGGSLRLSCAASGSTFDYYAMGWYRQAPGKERELVAAISRTGGRTYYADSVKGRFTISRDNAKNTVFLQMNSLKPEDTAVYYCAARGGWVRRYGWRLDYWGQGTQVTVSS”, the “polyreactivity (PSR sort gate)” value is listed as “low polyreactivity”.

“QVQLVESGGGLVQAGGSLRLSCAASGSTFDGNAMGWYRQAPGKERELDAAISDGDSTTYADSVKGRFTISRDNAKNTVYLQMNSLKPEDTAVYYCNADVARSKSQASAYDYWGQVTQVTVSS”: the “polyreactivity (PSR sort gate)” value is “low polyreactivity”.

With “QVQLVESGGGLVQAGGSLRLSCAASGRTFYYNAMGWYRQAPGKERELVASISWSGTSTYYADSVKGRFTISRDNAKNTVYLQMNSLKPEDTAVYYCATDSYWRQDLYRYEYWGQGTQVTVSS”, the “polyreactivity (PSR sort gate)” value is “high polyreactivity”.

On to “QVQLVESGGGLFQAGGSLRLSCAASGFTFGYYAMGWYRQAPGKERELVASISITAGSTYYADSVKGRFTISRDNAKNTVYLQMNSLKPEDTAVYYCAAKRRTRQSYYTEYYWGQGTQVTVSS”, for which the “polyreactivity (PSR sort gate)” value is on record as “high polyreactivity”.

Turning to “QVQLVESGGGLVQAGGSLRLSCAASGFTFFYNDMGSYRQAPGKERELVAAINLSGGTTYYADSVKGRFTISRDNAKNTVYLQMNSLIPEDTAVYYCNRASSTPWYRWRYKPFDYWGQGTQVTVSS”, the “polyreactivity (PSR sort gate)” value is “high polyreactivity”.

In the case of “QVQLVESGGGLVQAGGSLRLSCAASGRTFYRYAMGWYRQAPGKERELVARIRSGGSTNYADSVKGRFTISRDNAKNTVYLQMNSLKPEDTAVYYCAVDDAYPDRYDYWGQGTQVTVSS”, the “polyreactivity (PSR sort gate)” value is reported as “high polyreactivity”.

On to “QVQLVESGGGLVQTGGSLRLSCAASGRIFFDNAMGWYRQAPGKERELVAGIDSGGSTYYADSVKGRFTISRDNAKNTVYLQMNSLKPEDTAVYYCNSDYPPSTQSPLLQSYDYWGQGTQVTVSS”, for which the “polyreactivity (PSR sort gate)” value is reported as “low polyreactivity”.

For “QVQLVESGGGLVQAGGSLRLSCAASGFTIVYYAMGWYRQAPGKERELVAVISSRGGSTYYADSVKGRFTISRDNAKNTVYLQMNSLKPEDTAVYYCAARGRGQPFVRYDYWGQGTQVTVSS”, the “polyreactivity (PSR sort gate)” value is reported as “high polyreactivity”.

“QVQLVESGGGLVQAGGSLRLSCAASGRTFGVYAMGWNRQPPGKERELVATITSVDRTTYADSVKGRFTFSRDNAKITVYLQMNSLKPEDTAVYYCAAVGRWPRYYYWGQGTQVTVSS”: the “polyreactivity (PSR sort gate)” value was “high polyreactivity”.

Regarding “QVQLVESGGGLVQAGGSLRLSCAASGRTFRYYAMGWYRQAPGKERELVAAIRANGGSTYYADSVKGRFTISRDNAKNIVYLQMNSLKPEDTAVYYCAALYRRYPYHYDSWGQGTQVTVSS”, the “polyreactivity (PSR sort gate)” value was “high polyreactivity”.

“QVQLVESGGGLVQAGGSLRLSSDASGFIFSFNALGWYRQAPGKERELVAAISRSGGSTRYADSVKGRFTISRDNAKNTVYLQMNSLKPEDTAVYYCANRFASYRYHPGYDYWGQGTQVTVSS”: the “polyreactivity (PSR sort gate)” value is given as “high polyreactivity”.

For “QVQLVESGGGLVQAGGSLRLSCAASGSTFGYNAMGWYRQAPGKERELVADITWRGGRTYYADSVKGRFTISRDNAKNTVYLQMNSLKPEDTAVYYCAATSRGSGQRPGEAIIDYYYWGLGTQVTVSS”, the “polyreactivity (PSR sort gate)” value is listed as “high polyreactivity”.

For “QVQLVESGGGLVQAGGSLRLSCAASGSTFEYYAMGWYRQAPGKERELLATISIDGRTNYADSVKGRFTISRDNAKNTVYLQLYSVKPEDTAVYYCGARPYWRHRYDYWGQGTQVTVSS”, the “polyreactivity (PSR sort gate)” value is “low polyreactivity”.

As to “QVQLVESGGGLVQAGGSLRLSCAASGTFTVNTMGWYRQAPGKERELVAAISTGDTTTYADSVKGRFTISRDNAKNTVYLQMNSLKPEDTAVYYCNVDIGVYAYESDYWGQGTQVTVSS”, the “polyreactivity (PSR sort gate)” value was “low polyreactivity”.
